T1: SHMT1 (cytosolic serine hydroxymethyltransferase) WT (Homo sapiens, UniProt P34896 1-483)
T1 sequence: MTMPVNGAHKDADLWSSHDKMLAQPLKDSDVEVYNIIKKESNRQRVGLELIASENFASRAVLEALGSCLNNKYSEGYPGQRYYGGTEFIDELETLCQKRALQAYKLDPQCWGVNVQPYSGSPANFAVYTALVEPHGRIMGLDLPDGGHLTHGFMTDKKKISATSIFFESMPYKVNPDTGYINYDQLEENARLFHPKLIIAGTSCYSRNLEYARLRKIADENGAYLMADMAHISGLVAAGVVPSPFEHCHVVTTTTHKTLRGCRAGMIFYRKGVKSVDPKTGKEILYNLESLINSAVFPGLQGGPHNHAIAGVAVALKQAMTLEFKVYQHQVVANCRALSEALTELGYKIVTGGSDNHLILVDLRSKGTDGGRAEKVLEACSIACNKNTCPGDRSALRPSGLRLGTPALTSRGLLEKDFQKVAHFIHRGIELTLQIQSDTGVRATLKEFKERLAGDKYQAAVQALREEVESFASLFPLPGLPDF


Key:
[1] = biological target: T1, SHMT1 (cytosolic serine …); assay: EMSA
cryo-EM structure = biological target: the molecule itself; assay: cryo-EM structure

| Binder | binding result [1] | stoichiometry N (cryo-EM structure) |
| --- | --- | --- |
| UGUGGCCUUUUGGGAAUUGUAGUUCGCCCACUCACCGCUUUUUUCUUUAU (structured_RNA) [UTR2 1-50 Rv (reverse complement)] | binds |  |
| human cytosolic serine hydroxymethyltransferase (SHMT1), wild type (enzyme) DADLWSSHDKMLAQPLKDSDVEVYNIIKKESNRQRVGLELIASENFASRAVLEALGSCLNNKYSEGYPGQRYYGGTEFIDELETLCQKRALQAYKLDPQCWGVNVQPYSGSPANFAVYTALVEPHGRIMGLDLPDGGHLTHGFMTDKKKISATSIFFESMPYKVNPDTGYINYDQLEENARLFHPKLIIAGTSCYSRNLEYARLRKIADENGAYLMADMAHISGLVAAGVVPSPFEHCHVVTTTTHKTLRGCRAGMIFYRKGVKSVDPKTGKEILYNLESLINSAVFPGLQGGPHNHAIAGVAVALKQAMTLEFKVYQHQVVANCRALSEALTELGYKIVTGGSDNHLILVDLRSKGTDGGRAEKVLEACSIACNKNTCPGDRSALRPSGLRLGTPALTSRGLLEKDFQKVAHFIHRGIELTLQIQSDTGVRATLKEFKERLAGDKYQAAVQALREEVESFASLFPLPGL |  | 4 |

From article doi:10.1101/2023.03.17.532973 (bioRxiv, 2023)
